Ends that are not written are not given here.
How the values were obtained:
[1] = target: T1, neuropilin-1 by forced expression in M21 cells (transfected neuropilin-1 cDNA) (UniProt O14786 22-923, limits assumed); assay: cell-based or functional assay
[2] = target: T1, neuropilin-1 by forced expression in …; assay: phage binding to M21 cells transfected with neuropilin-1 cDNA against vector alone or untransfected cells, phage titration
Protocol: Suspended cells (10⁶ cells in DMEM containing 1% BSA) were incubated with 10⁸ pfu/ml of T7 phage for 1 hr at 4° C. The cells were washed 4 times with the binding buffer, lysed with lysogeny broth containing 1% NP-40, and titrated. Phage internalization assays used the same procedure, except that the cells were incubated with phage at 37° C., and that an acidic buffer (500 mM sodium chloride, 0.1 M glycine, 1% BSA, pH 2.5) was substituted for the binding buffer in the second wash. Inhibitors of binding and internalization were added 20 min prior to incubation with phage. […] Free synthetic peptides, mouse antibodies against human α1, α2, αvβ3, αvβ5, α5β1, α4, or αv integrins and integrin subunits (Chemicon), goat anti-rat neuropilin-1 (R&D Systems, Minneapolis, Minn.), with mouse and a goat IgG isotype controls (Abcam) were also tested.

T1 sequence (O14786 22-923 limits assumed): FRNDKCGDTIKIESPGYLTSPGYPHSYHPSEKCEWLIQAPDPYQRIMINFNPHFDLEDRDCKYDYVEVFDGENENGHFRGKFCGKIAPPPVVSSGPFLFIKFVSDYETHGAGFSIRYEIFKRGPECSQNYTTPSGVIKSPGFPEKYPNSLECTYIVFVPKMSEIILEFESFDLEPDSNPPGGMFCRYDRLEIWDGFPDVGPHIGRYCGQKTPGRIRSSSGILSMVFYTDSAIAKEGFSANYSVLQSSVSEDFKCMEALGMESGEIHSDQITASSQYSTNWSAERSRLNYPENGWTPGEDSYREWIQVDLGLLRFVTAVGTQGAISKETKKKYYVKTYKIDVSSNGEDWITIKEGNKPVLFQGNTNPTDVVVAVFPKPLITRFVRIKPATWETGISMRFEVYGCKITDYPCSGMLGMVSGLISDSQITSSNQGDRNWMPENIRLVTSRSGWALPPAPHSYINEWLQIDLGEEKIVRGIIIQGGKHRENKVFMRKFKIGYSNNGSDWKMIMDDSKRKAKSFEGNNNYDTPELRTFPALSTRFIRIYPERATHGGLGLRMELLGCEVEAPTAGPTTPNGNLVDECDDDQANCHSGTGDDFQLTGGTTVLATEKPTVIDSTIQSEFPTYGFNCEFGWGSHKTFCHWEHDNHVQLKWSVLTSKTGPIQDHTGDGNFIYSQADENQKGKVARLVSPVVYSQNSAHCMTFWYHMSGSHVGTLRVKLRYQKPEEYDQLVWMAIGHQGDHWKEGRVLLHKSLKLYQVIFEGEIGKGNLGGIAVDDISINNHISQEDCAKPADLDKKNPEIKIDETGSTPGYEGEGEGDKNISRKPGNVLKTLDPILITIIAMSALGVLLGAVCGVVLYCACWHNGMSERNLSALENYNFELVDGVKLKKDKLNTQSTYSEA

B1: CRGDK phage (T7 phage displaying CRGDK) (peptide)
peptide: CRGDK
modifications: also: displayed on T7 phage
notes: CRGDK is the N-terminal proteolytic fragment of iRGD; also called CRGDK fragment; FAM-CRGDK
- internalization of CRGDK phage into M21 cells [1]: 3.5 fold
- fold increase of binding on forced expression of neuropilin-1 in M21 cells [2]: 3.5 fold

From US20130343989A1 (SANFORD BURNHAM MEDICAL RESEARCH INSTITUTE, published 2013)
